Data reported in article PMC4504005, “Structural Basis for Receptor Activity-Modifying Protein-Dependent Selective Peptide Recognition by a G Protein-Coupled Receptor” (Molecular cell, 2015).
Several values for one entry are separate records, joined by “and”; a condition that tells them apart may be missing. Equal entries are not always repeated.

Tests used:
[1] = target: MBP-RAMP2 ECD [L106R]-(GSA)3-CLR ECD-H6 tethered fusion protein (UniProt O60895); experiment: AlphaScreen or HTRF; competition assay: purified tethered receptor ECD fusion protein with biotin-CGRP or biotin-AM (100 nM each in Figure 6), unlabelled competitor peptide varied; apparent affinities
[2] = target: MBP-RAMP1 ECD-(GSA)3-CLR ECD-H6 tethered fusion protein (UniProt O60894); experiment: as above

Row | Substance | IC50 [1] [µM] | pIC50 [1] | IC50 [2] [µM] | pIC50 [2]
1 | AM(22–52)NH2 (peptide) | 5 to 15 | 4.92 and 4.84 | – | –
2 | AM(37–52)NH2 (peptide) | – | 5 | – | –
3 | CGRPmut [F37Y] (peptide) | – | 4.79 | – | 6.24

Further lines, results first:

Row | IC50 [1] [µM] | pIC50 [1] | IC50 [2] [µM] | pIC50 [2] | Substance
4 | – | – | 2 | 5.01 | CGRP(8–37)NH2 (peptide)
5 | – | – | 0.46 | 6.79 | CGRP(27–37)NH2 [D31, P34, F35] (peptide)
